US20250197486A1 (Novartis, published 2025)

Biological target: T1, human VEGF165 (human, UniProt P15692 27-191)
T1 construct: mature; The canonical UniProt entry is a longer isoform, so the VEGF165 isoform must be chosen; also called recombinant VEGF165 protein; VEGF-A
Test: SPR, in vitro, recombinant VEGF165, 37 °C
Description: The brolucizumab: VEGF binding parameter values (Table 8) were defined on the basis of a surface plasmon resonance (SPR) in vitro binding experiment with drug and recombinant VEGF165 protein at 37° C. These in vitro measured brolucizumab: VEGF binding parameter values were then scaled similar to ranibizumab to obtain in vivo estimates. […] The scaling is performed such that the koff is kept constant and the kon is divided by the scaling factor.

T1 sequence (P15692 other isoform, or with tags, fused parts or gaps): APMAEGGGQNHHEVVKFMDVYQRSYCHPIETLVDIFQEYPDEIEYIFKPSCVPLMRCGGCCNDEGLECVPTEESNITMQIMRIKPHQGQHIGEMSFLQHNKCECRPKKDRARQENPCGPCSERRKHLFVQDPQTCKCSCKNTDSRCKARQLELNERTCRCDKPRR

- Kd: 0.101 nM
- koff: 0.00025 s⁻¹
- kon: 2.5e+06 M⁻¹ s⁻¹
B1: brolucizumab (scFv)
scFv: MEIVMTQSPSTLSASVGDRVIITCQASEIIHSWLAWYQQKPGKAPKLLIYLASTLASGVPSRFSGSGSGAEFTLTISSLQPDDFATYYCQNVYLASTNGANFGQGTKLTVLGGGGGSGGGGSGGGGSGGGGSEVQLVESGGGLVQPGGSLRLSCTASGFSLTDYYYMTWVRQAPGKGLEWVGFIDPDDDPYYATWAKGRFTISRDNSKNTLYLQMNSLRAEDTAVYYCAGGDHNSGWGLDIWGQGTLVTVSS
notes: Humanized scFv of about 26 kDa, VL-linker-VH; also called Beovu; drug
